Results reported in the supplement of paper PMC10567573.

B1: TRIM43 (parent)
chain: NNSWIRKNSTMVNSEDIFLLLCLK
B2: SMOC2 (parent)
chain: DCAGSPQKPLCASDGRTFLSRCEF

Variants of: B1
Assay: protein stability index of a GFP-peptide fusion (GPS, HEK-293T) (PSI 1-6); higher = more stable
Settings: c terminus: a fixed tail appended
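Also: lentivirally expressed fusions sorted by FACS into six bins by GFP to DsRed ratio, PSI derived from sequencing read proportions per bin multiplied by bin number.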

Variant	protein stability index
NNSWIRKNSTMVNSEDIFLLLCLW	2.28
NNSWIRKNSTMVNSEDIFLLLCLE	4.39
NNSWIRKNSTMVNSEDIFLLLCLY	3.18
NNSWIRKNSTMVNSEDIFLLLCLP	3.69
NNSWIRKNSTMVNSEDIFLLLCLL	2.72
NNSWIRKNSTMVNSEDIFLLLCLQ	3.08
NNSWIRKNSTMVNSEDIFLLLCLH	2.87
NNSWIRKNSTMVNSEDIFLLLCLT	2.05
NNSWIRKNSTMVNSEDIFLLLCLN	2.86
NNSWIRKNSTMVNSEDIFLLLCLD	3.92
NNSWIRKNSTMVNSEDIFLLLCLA	3.16
NNSWIRKNSTMVNSEDIFLLLCLG	3.84
NNSWIRKNSTMVNSEDIFLLLCLR	3.57
NNSWIRKNSTMVNSEDIFLLLCLM	3.1
NNSWIRKNSTMVNSEDIFLLLCLV	2.38
NNSWIRKNSTMVNSEDIFLLLCLI	2.33
NNSWIRKNSTMVNSEDIFLLLCLC	2.79
NNSWIRKNSTMVNSEDIFLLLCLS	3.16
NNSWIRKNSTMVNSEDIFLLLCRK	1.55
NNSWIRKNSTMVNSEDIFLLLCAK	2.83
NNSWIRKNSTMVNSEDIFLLLCPK	2.15
NNSWIRKNSTMVNSEDIFLLLCNK	1.66

Variant	protein stability index
NNSWIRKNSTMVNSEDIFLLLCCK	1.84
NNSWIRKNSTMVNSEDIFLLLCKK	1.54
NNSWIRKNSTMVNSEDIFLLLCFK	3.62
NNSWIRKNSTMVNSEDIFLLLCQK	2.38
NNSWIRKNSTMVNSEDIFLLLCHK	2.61
NNSWIRKNSTMVNSEDIFLLLCEK	1.93
NNSWIRKNSTMVNSEDIFLLLCTK	2.42
NNSWIRKNSTMVNSEDIFLLLCGK	1.44
NNSWIRKNSTMVNSEDIFLLLCWK	3.66
NNSWIRKNSTMVNSEDIFLLLCSK	2.42
NNSWIRKNSTMVNSEDIFLLLCDK	1.95
NNSWIRKNSTMVNSEDIFLLLCYK	2.25
NNSWIRKNSTMVNSEDIFLLPCLK	2.37
NNSWIRKNSTMVNSEDIFLLRCLK	1.94
NNSWIRKNSTMVNSEDIFLLSCLK	2.65
NNSWIRKNSTMVNSEDIFLLHCLK	2.39
NNSWIRKNSTMVNSEDIFLLVCLK	3.54
NNSWIRKNSTMVNSEDIFLLWCLK	2.91
NNSWIRKNSTMVNSEDIFLLQCLK	2.44
NNSWIRKNSTMVNSEDIFLLKCLK	2.58
NNSWIRKNSTMVNSEDIFLLTCLK	2.96
NNSWIRKNSTMVNSEDIFLLNCLK	1.58

Variant	protein stability index
NNSWIRKNSTMVNSEDIFLLICLK	3.08
NNSWIRKNSTMVNSEDIFLLYCLK	2.9
NNSWIRKNSTMVNSEDIFLLMCLK	3.25
NNSWIRKNSTMVNSEDIFLLLNLK	2.32
NNSWIRKNSTMVNSEDIFLLLKLK	2.13
NNSWIRKNSTMVNSEDIFLLLMLK	2.61
NNSWIRKNSTMVNSEDIFLLLHLK	2.62
NNSWIRKNSTMVNSEDIFLLLTLK	2.19
NNSWIRKNSTMVNSEDIFLLLLLK	3.17
NNSWIRKNSTMVNSEDIFLLLGLK	2.32
NNSWIRKNSTMVNSEDIFLLLILK	2.66
NNSWIRKNSTMVNSEDIFLLLPLK	2.44
NNSWIRKNSTMVNSEDIFLLLRLK	1.91
NNSWIRKNSTMVNSEDIFLLLELK	2.33
NNSWIRKNSTMVNSEDIFLLLWLK	2.66
NNSWIRKNSTMVNSEDIFLLLDLK	1.94
NNSWIRKNSTMVNSEDIFLLLVLK	2.96
NNSWIRKNSTMVNSEDIFLLLSLK	2.72
NNSWIRKNSTMVNSEDIFLLLALK	1.91
NNSWIRKNSTMVNSEDIFLLLYLK	3.36
NNSWIRKNSTMVNSEDIFLLLQLK	2.06

Variants of: B2
Assay: as above
Settings: c terminus: a fixed tail appended

Variant	protein stability index
DCAGSPFKPLCASDGRTFLSRCEF	1.75
DCAGSPTKPLCASDGRTFLSRCEF	2.46
DCAGSPCKPLCASDGRTFLSRCEF	2.26
DCAGSPRKPLCASDGRTFLSRCEF	3.06
DCAGSPVKPLCASDGRTFLSRCEF	2.39
DCAGSPMKPLCASDGRTFLSRCEF	2.73
DCAGSPKKPLCASDGRTFLSRCEF	3.04
DCAGSPWKPLCASDGRTFLSRCEF	2.55
DCAGSPGKPLCASDGRTFLSRCEF	2.88
DCAGSPHKPLCASDGRTFLSRCEF	2.1
DCAGSPAKPLCASDGRTFLSRCEF	2.51
DCAGSPEKPLCASDGRTFLSRCEF	1.81
DCAGSPNKPLCASDGRTFLSRCEF	1.96
DCAGSPIKPLCASDGRTFLSRCEF	1.83
DCAGSPDKPLCASDGRTFLSRCEF	2.94
DCAGSPYKPLCASDGRTFLSRCEF	2.36
DCAGSPLKPLCASDGRTFLSRCEF	2.11
DCAASPQKPLCASDGRTFLSRCEF	2.77
DCARSPQKPLCASDGRTFLSRCEF	2.08
DCAHSPQKPLCASDGRTFLSRCEF	3.44
DCAYSPQKPLCASDGRTFLSRCEF	2.22
DCAISPQKPLCASDGRTFLSRCEF	2.87
DCAMSPQKPLCASDGRTFLSRCEF	2.32
DCATSPQKPLCASDGRTFLSRCEF	3.2
DCASSPQKPLCASDGRTFLSRCEF	2.24

Variant	protein stability index
DCANSPQKPLCASDGRTFLSRCEF	2.62
DCAQSPQKPLCASDGRTFLSRCEF	2.88
DCALSPQKPLCASDGRTFLSRCEF	2.56
DCACSPQKPLCASDGRTFLSRCEF	3.17
DCAVSPQKPLCASDGRTFLSRCEF	2.47
DCAPSPQKPLCASDGRTFLSRCEF	2.56
DCAKSPQKPLCASDGRTFLSRCEF	2.65
DCAWSPQKPLCASDGRTFLSRCEF	2.32
DCADSPQKPLCASDGRTFLSRCEF	4.36
DCAESPQKPLCASDGRTFLSRCEF	3.83
DCAFSPQKPLCASDGRTFLSRCEF	2.23
DCAGQPQKPLCASDGRTFLSRCEF	2.09
DCAGLPQKPLCASDGRTFLSRCEF	2.46
DCAGFPQKPLCASDGRTFLSRCEF	1.72
DCAGTPQKPLCASDGRTFLSRCEF	2.24
DCAGPPQKPLCASDGRTFLSRCEF	2.72
DCAGVPQKPLCASDGRTFLSRCEF	2.76
DCAGRPQKPLCASDGRTFLSRCEF	2.66
DCAGEPQKPLCASDGRTFLSRCEF	2.56
DCAGKPQKPLCASDGRTFLSRCEF	2.72
DCAGWPQKPLCASDGRTFLSRCEF	2.46
DCAGCPQKPLCASDGRTFLSRCEF	2.24
DCAGGPQKPLCASDGRTFLSRCEF	3.07
DCAGAPQKPLCASDGRTFLSRCEF	2.94
DCAGNPQKPLCASDGRTFLSRCEF	2.78

Variant	protein stability index
DCAGYPQKPLCASDGRTFLSRCEF	2.68
DCAGMPQKPLCASDGRTFLSRCEF	2.52
DCAGIPQKPLCASDGRTFLSRCEF	2.14
DCAGDPQKPLCASDGRTFLSRCEF	2.96
DEAGSPQKPLCASDGRTFLSRCEF	3.84
DNAGSPQKPLCASDGRTFLSRCEF	2.81
DRAGSPQKPLCASDGRTFLSRCEF	3.19
DTAGSPQKPLCASDGRTFLSRCEF	3.5
DIAGSPQKPLCASDGRTFLSRCEF	2.25
DFAGSPQKPLCASDGRTFLSRCEF	3.25
DAAGSPQKPLCASDGRTFLSRCEF	2.79
DHAGSPQKPLCASDGRTFLSRCEF	3.36
DQAGSPQKPLCASDGRTFLSRCEF	3.12
DKAGSPQKPLCASDGRTFLSRCEF	3.03
DMAGSPQKPLCASDGRTFLSRCEF	2.86
DSAGSPQKPLCASDGRTFLSRCEF	2.18
DVAGSPQKPLCASDGRTFLSRCEF	2.58
DPAGSPQKPLCASDGRTFLSRCEF	3.4
DDAGSPQKPLCASDGRTFLSRCEF	3.44
DGAGSPQKPLCASDGRTFLSRCEF	3.66
DWAGSPQKPLCASDGRTFLSRCEF	2.23
DYAGSPQKPLCASDGRTFLSRCEF	2.63
KCAGSPQKPLCASDGRTFLSRCEF	2.59
RCAGSPQKPLCASDGRTFLSRCEF	1.55
FCAGSPQKPLCASDGRTFLSRCEF	1.5

Variant	protein stability index
LCAGSPQKPLCASDGRTFLSRCEF	2.85
MCAGSPQKPLCASDGRTFLSRCEF	1.7
GCAGSPQKPLCASDGRTFLSRCEF	2.38
YCAGSPQKPLCASDGRTFLSRCEF	1.72
NCAGSPQKPLCASDGRTFLSRCEF	2.2
PCAGSPQKPLCASDGRTFLSRCEF	2.66
TCAGSPQKPLCASDGRTFLSRCEF	2.59
SCAGSPQKPLCASDGRTFLSRCEF	1.93
ACAGSPQKPLCASDGRTFLSRCEF	1.89
VCAGSPQKPLCASDGRTFLSRCEF	2.35
HCAGSPQKPLCASDGRTFLSRCEF	2.02
ICAGSPQKPLCASDGRTFLSRCEF	2.92
ECAGSPQKPLCASDGRTFLSRCEF	3.69
DCAGSPQCPLCASDGRTFLSRCEF	2.18
DCAGSSQKPLCASDGRTFLSRCEF	3.39
DCAGSQQKPLCASDGRTFLSRCEF	2.75
DCAGSCQKPLCASDGRTFLSRCEF	2.14
DCAGSWQKPLCASDGRTFLSRCEF	2.08
DCAGSGQKPLCASDGRTFLSRCEF	2.62
DCAGSYQKPLCASDGRTFLSRCEF	2.62
DCAGSEQKPLCASDGRTFLSRCEF	3.15
DCAGSFQKPLCASDGRTFLSRCEF	1.76
DCAGSIQKPLCASDGRTFLSRCEF	2.34
DCAGSVQKPLCASDGRTFLSRCEF	1.8
DCAGSDQKPLCASDGRTFLSRCEF	2.46

Variant	protein stability index
DCAGSHQKPLCASDGRTFLSRCEF	2.21
DCAGSKQKPLCASDGRTFLSRCEF	1.69
DCAGSLQKPLCASDGRTFLSRCEF	2.18
DCAGSRQKPLCASDGRTFLSRCEF	2.19
DCAGSAQKPLCASDGRTFLSRCEF	1.73
DCAGSNQKPLCASDGRTFLSRCEF	2.66
DCAGSTQKPLCASDGRTFLSRCEF	2.53
DCVGSPQKPLCASDGRTFLSRCEF	2.66
DCPGSPQKPLCASDGRTFLSRCEF	2.37
DCHGSPQKPLCASDGRTFLSRCEF	2.29
DCLGSPQKPLCASDGRTFLSRCEF	2.73
DCKGSPQKPLCASDGRTFLSRCEF	2.89
DCTGSPQKPLCASDGRTFLSRCEF	2.56
DCRGSPQKPLCASDGRTFLSRCEF	2.38
DCEGSPQKPLCASDGRTFLSRCEF	3.01
DCQGSPQKPLCASDGRTFLSRCEF	2.82
DCSGSPQKPLCASDGRTFLSRCEF	2.32
DCYGSPQKPLCASDGRTFLSRCEF	2.02
DCDGSPQKPLCASDGRTFLSRCEF	2.95
DCIGSPQKPLCASDGRTFLSRCEF	2.71
DCWGSPQKPLCASDGRTFLSRCEF	2.21
DCNGSPQKPLCASDGRTFLSRCEF	2.66
DCFGSPQKPLCASDGRTFLSRCEF	3.16
